In patent US20250189544A1 (CASI PHARMACEUTICALS, published 2025):

T1: Human CD38 (human, UniProt P28907 1-300)
T1 sequence: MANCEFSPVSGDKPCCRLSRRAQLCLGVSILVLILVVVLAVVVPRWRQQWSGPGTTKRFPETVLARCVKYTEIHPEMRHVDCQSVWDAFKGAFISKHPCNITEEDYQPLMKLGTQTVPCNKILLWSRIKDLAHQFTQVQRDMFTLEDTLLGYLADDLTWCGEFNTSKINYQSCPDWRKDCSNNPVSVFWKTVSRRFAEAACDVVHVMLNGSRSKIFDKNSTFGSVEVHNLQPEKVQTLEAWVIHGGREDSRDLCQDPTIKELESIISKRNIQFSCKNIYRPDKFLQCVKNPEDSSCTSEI


How the values were obtained:
[1] = molecular target: T1, Human CD38; experiment: flow cytometry on red blood cells of Donor 2; negative control
[2] = molecular target: T1, Human CD38; experiment: flow cytometry on red blood cells of Donor 3; negative control
[3] = molecular target: T1, Human CD38; experiment: flow cytometry on red blood cells of Donor 1; negative control
[4] = molecular target: T1, Human CD38; experiment: flow cytometry on Ramos cells expressing CD38; negative control, ambiguous regression curve
[5] = molecular target: T1, Human CD38; experiment: flow cytometry on Daudi cells expressing CD38
Experimental: (§1) Cell lines/primary cell type used. […] Daudi, Raji, Ramos and cells were cultured in log-phase in RPMI-1640 Medium (ATCC 30-2001) supplemented with 10% FCS, 2 mM L-glutamine, 100 IU/ml penicillin, 100 μg/ml streptomycin and 1 mM sodium pyruvate (all from ThermoFisher) with viability of >85% as determined by automated cell counter (Countess II FL Automated Cell Counter; ThermoFisher; catalog #AMQAF1000) prior to experiments.
(§2) Cell staining and flow cytometry. All experiments were done in triplicates using a 96-well plate format. 50,000 cells were plated in each well of a 96-well round bottom tissue culture treated plate. […] Following a wash step with FACS cell staining buffer, cells were incubated with secondary antibody (rabbit anti-human Fcγ F(ab′)2 labeled with Alexa Fluor647; Jackson ImmunoResearch Catalog #309-606-008) at 5 μg/ml for 30 minutes on ice in the dark. Cells were washed once more with FACS cell staining buffer and analyzed by flow cytometry using a BD Biosciences FACSCalibur flow cytometer (San Jose, CA). FSC vs SSC gating was used to identify cells of interest. A total of 3,000 live single cells were recorded for each sample and corresponding fluorescent signal intensity histograms were analyzed. The mean fluorescence intensity (MFI) was calculated using FlowJo analysis software (Ashland, Oregon) for each antibody concentration.

[6] = molecular target: T1, Human CD38; experiment: flow cytometry on Raji cells expressing CD38
Experimental: as §1, §2

[7] = molecular target: T1, Human CD38; experiment: flow cytometry on Ramos cells expressing CD38
Experimental: as §1, §2

[8] = molecular target: T1, Human CD38; experiment: flow cytometry on Raji cells expressing CD38; text value differs from Table 1 (273)
Experimental: as §1, §2

| Molecule | Max MFI [1] [MFI] | Max MFI [2] [MFI] | Max MFI [3] [MFI] | EC50 [4] [µg/mL] | EC50 [5] [µg/mL] | EC50 [6] [µg/mL] | EC50 [7] [µg/mL] | EC50 [8] [µg/mL] |
| --- | --- | --- | --- | --- | --- | --- | --- | --- |
| Human IgG1 isotype control antibody | 2110 | 1960 | 2560 | 0.001 | – | – | – | – |
| CID103 (aCD38-b-348) (antibody, V domains shown) VH: QLQLQESGPGLVKPSETLSLTCTVSGGSISSSDYYWGWIRQPPGKGLEWIGSIYYSGSTYYNPSLKSRVTISVDTSKNQFSLKLSSVTAADTAVYYCARGQYSSGWYAYPFDMWGQGTMVTVSS VL: EIVLTQSPGTLSLSPGERATLSCRASQSVRSSYLAWYQQKPGQAPRLLIYGASSRATGIPDRFSGSGSGTDFTLTISRLEPEDFAVYYCQQDGNVYTFGGGTKVEIK | – | – | – | – | 0.382 | 0.273 | 0.412 | 0.373 |
